Measurements published in FireProtDB (doi:10.1073/pnas.91.22.10325).

Details: Equus caballus, pH 1.8, Thermal, HCl 20 mM, reversible: yes

Chain of Cytochrome c wild type, P00004 (P00004 whole entry): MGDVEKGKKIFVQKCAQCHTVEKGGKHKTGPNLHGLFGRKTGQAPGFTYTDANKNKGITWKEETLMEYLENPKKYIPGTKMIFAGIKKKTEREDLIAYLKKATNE

Cytochrome c wild type, P00004
Tm (CD, NaClO4 10 mM): 25.8 °C | heat capacity change of unfolding (CD, NaClO4 10 mM): 0.43 kcal/mol/K | unfolding enthalpy (van 't Hoff) (CD, NaClO4 10 mM): 28.2 kcal/mol | Tm (CD, NaClO4 20 mM): 37 °C | heat capacity change of unfolding (CD, NaClO4 20 mM): 0.43 kcal/mol/K | unfolding enthalpy (van 't Hoff) (CD, NaClO4 20 mM): 32.5 kcal/mol | Tm (CD, NaClO4 50 mM): 47 °C | heat capacity change of unfolding (CD, NaClO4 50 mM): 0.43 kcal/mol/K | unfolding enthalpy (van 't Hoff) (CD, NaClO4 50 mM): 38 kcal/mol | Tm (DSC, NaClO4 20 mM): 34.4 °C | heat capacity change of unfolding (DSC, NaClO4 20 mM): 0.31 kcal/mol/K | unfolding enthalpy (calorimetric) (DSC, NaClO4 20 mM): 32.3 kcal/mol | unfolding enthalpy (van 't Hoff) (DSC, NaClO4 20 mM): 31.8 kcal/mol | Tm (DSC, NaClO4 30 mM): 40 °C | heat capacity change of unfolding (DSC, NaClO4 30 mM): 0.31 kcal/mol/K | unfolding enthalpy (calorimetric) (DSC, NaClO4 30 mM): 31.4 kcal/mol | unfolding enthalpy (van 't Hoff) (DSC, NaClO4 30 mM): 31.4 kcal/mol | Tm (DSC, NaClO4 40 mM): 42.6 °C | heat capacity change of unfolding (DSC, NaClO4 40 mM): 0.31 kcal/mol/K | unfolding enthalpy (calorimetric) (DSC, NaClO4 40 mM): 34.9 kcal/mol | unfolding enthalpy (van 't Hoff) (DSC, NaClO4 40 mM): 34.9 kcal/mol | Tm (DSC, NaClO4 50 mM): 44.1 °C | heat capacity change of unfolding (DSC, NaClO4 50 mM): 0.31 kcal/mol/K | unfolding enthalpy (calorimetric) (DSC, NaClO4 50 mM): 33.7 kcal/mol | unfolding enthalpy (van 't Hoff) (DSC, NaClO4 50 mM): 33.7 kcal/mol
